Target: T1, CD3ε homodimer protein (human, UniProt P07766 23-126, limits assumed, sulfo-tag or biotin label in the ECL assays; amine-coupled to the chip in SPR)
T1 construct: also called human CD3ε homodimer protein; CD3 (CD3ε)
Test: SPR Biacore T200; CD3ε homodimer on CM4 chip;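 note: Single-residue variant antibodies injected as analyte over CD3ε homodimer immobilized by amine coupling, run at 25 °C in HBS-EP+ buffer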

T1 sequence (P07766 23-126 limits assumed): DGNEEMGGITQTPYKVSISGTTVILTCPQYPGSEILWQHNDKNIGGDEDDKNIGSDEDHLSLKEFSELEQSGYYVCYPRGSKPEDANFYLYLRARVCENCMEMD

ratio of amounts bound Z=Y/X (altered form / CE115HA000) | Binder
1.05 | CE115HA000 G98T one-arm antibody (antibody, human IgG1, kappa, L234A L235A, N297A, name in Kabat numbering) heavy: QVQLVESGGGVVQPGRSLRLSCAASGFTFSNAWMHWVRQAPGKGLEWVAQIKAKSNNYATYYAESVKGRFTISRDDSKNSLYLQMNSLKTEDTAVYYCRYVHYTAYYGVDAWGQGTTVTVSSASTKGPSVFPLAPSSKSTSGGTAALGCLVKDYFPEPVTVSWNSGALTSGVHTFPAVLQSSGLYSLSSVVTVPSSSLGTQTYICNVNHKPSNTKVDKKVEPKSCDKTHTCPPCPAPEAAGGPSVFLFPPKPKDTLMISRTPEVTCVVVDVSHEDPEVKFNWYVDGVEVHNAKTKPREEQYASTYRVVSVLTVLHQDWLNGKEYKCKVSNKALPAPIEKTISKAKGQPREPQVYTLPPSRCELTKNQVSLSCAVKGFYPSDIAVEWESNGQPENNYKTTPPVLDSDGSFFLVSKLTVDKSRWQQGNVFSCSVMHEALHNHYTQKSLSLSPDYKDDDDK EPKSSDKTHTCPPCPAPELLGGPSVFLFPPKPKDTLMISRTPEVTCVVVDVSHEDPEVKFNWYVDGVEVHNAKTKPREEQYNSTYRVVSVLTVLHQDWLNGKEYKCKVSNKALPAPIEKTISKAKGQPREPQVCTLPPSRDELTKNQVSLWCLVKGFYPSDIAVEWESNGQPENNYKTTPPVLDSDGSFFLYSKLTVDKSRWQQGNVFSCSVMHEALHNRYTQKSLSLSP light: DIVMTQSPLSLPVTPGEPASISCRSSQSLVHSNRNTYLHWYQQKPGQAPRLLIYKVSNRFSGVPDRFSGSGSGTDFTLKISRVEAEDVGVYYCGQGTQVPYTFGQGTKLEIKRTVAAPSVFIFPPSDEQLKSGTASVVCLLNNFYPREAKVQWKVDNALQSGNSQESVTEQDSKDSTYSLSSTLTLSKADYEKHKVYACEVTHQGLSSPVTKSFNRGEC
2.22 | CE115HA000 G98Y one-arm antibody (antibody, human IgG1, kappa, L234A L235A, N297A, name in Kabat numbering) heavy: QVQLVESGGGVVQPGRSLRLSCAASGFTFSNAWMHWVRQAPGKGLEWVAQIKAKSNNYATYYAESVKGRFTISRDDSKNSLYLQMNSLKTEDTAVYYCRYVHYYAYYGVDAWGQGTTVTVSSASTKGPSVFPLAPSSKSTSGGTAALGCLVKDYFPEPVTVSWNSGALTSGVHTFPAVLQSSGLYSLSSVVTVPSSSLGTQTYICNVNHKPSNTKVDKKVEPKSCDKTHTCPPCPAPEAAGGPSVFLFPPKPKDTLMISRTPEVTCVVVDVSHEDPEVKFNWYVDGVEVHNAKTKPREEQYASTYRVVSVLTVLHQDWLNGKEYKCKVSNKALPAPIEKTISKAKGQPREPQVYTLPPSRCELTKNQVSLSCAVKGFYPSDIAVEWESNGQPENNYKTTPPVLDSDGSFFLVSKLTVDKSRWQQGNVFSCSVMHEALHNHYTQKSLSLSPDYKDDDDK EPKSSDKTHTCPPCPAPELLGGPSVFLFPPKPKDTLMISRTPEVTCVVVDVSHEDPEVKFNWYVDGVEVHNAKTKPREEQYNSTYRVVSVLTVLHQDWLNGKEYKCKVSNKALPAPIEKTISKAKGQPREPQVCTLPPSRDELTKNQVSLWCLVKGFYPSDIAVEWESNGQPENNYKTTPPVLDSDGSFFLYSKLTVDKSRWQQGNVFSCSVMHEALHNRYTQKSLSLSP light: DIVMTQSPLSLPVTPGEPASISCRSSQSLVHSNRNTYLHWYQQKPGQAPRLLIYKVSNRFSGVPDRFSGSGSGTDFTLKISRVEAEDVGVYYCGQGTQVPYTFGQGTKLEIKRTVAAPSVFIFPPSDEQLKSGTASVVCLLNNFYPREAKVQWKVDNALQSGNSQESVTEQDSKDSTYSLSSTLTLSKADYEKHKVYACEVTHQGLSSPVTKSFNRGEC

Source: patent US20260049138A1 (Chugai, published 2026)
